Measurements taken from patent US20210032331A1 (PHANES THERAPEUTICS, published 2021).

T1: human LAG-3(ECD)-mFc (human, UniProt P18627 23-450)
T1 construct: also called hLAG3-mFc; human LAG-3 extracellular domain (ECD) fused to mouse Fc; not shown: mouse Fc
T1 sequence: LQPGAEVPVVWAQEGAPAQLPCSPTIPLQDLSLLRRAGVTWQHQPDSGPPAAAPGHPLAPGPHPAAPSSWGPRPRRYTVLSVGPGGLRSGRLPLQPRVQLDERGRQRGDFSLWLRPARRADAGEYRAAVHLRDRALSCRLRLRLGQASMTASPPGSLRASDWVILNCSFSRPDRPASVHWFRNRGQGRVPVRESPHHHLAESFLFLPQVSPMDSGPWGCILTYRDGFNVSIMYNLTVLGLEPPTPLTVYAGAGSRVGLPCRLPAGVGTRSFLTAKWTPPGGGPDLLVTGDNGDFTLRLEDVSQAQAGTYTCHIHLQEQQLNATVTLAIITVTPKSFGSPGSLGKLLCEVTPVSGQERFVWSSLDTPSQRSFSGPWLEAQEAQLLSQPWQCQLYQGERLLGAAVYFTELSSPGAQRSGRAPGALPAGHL

T2: human LAG-3(ECD)-huFc (human, UniProt P18627 23-450)
T2 construct: also called Fc-tagged human LAG-3(ECD)-huFc; not shown: human Fc (huFc) at the C-terminus
T2 sequence: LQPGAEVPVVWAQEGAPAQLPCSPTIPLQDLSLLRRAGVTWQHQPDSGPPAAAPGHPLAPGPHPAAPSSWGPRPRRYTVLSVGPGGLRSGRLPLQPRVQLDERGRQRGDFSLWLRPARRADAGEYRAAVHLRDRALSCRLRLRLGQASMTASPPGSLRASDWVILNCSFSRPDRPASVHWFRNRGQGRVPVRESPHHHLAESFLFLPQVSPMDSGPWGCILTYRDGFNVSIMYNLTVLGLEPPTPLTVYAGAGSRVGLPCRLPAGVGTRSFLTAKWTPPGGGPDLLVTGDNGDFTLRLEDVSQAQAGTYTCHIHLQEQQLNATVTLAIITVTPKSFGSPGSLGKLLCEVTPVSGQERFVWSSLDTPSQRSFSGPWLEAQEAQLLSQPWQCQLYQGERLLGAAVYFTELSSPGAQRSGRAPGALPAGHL


Tests used:
human LAG-3(ECD)-mFc = molecular target: T1, human LAG-3(ECD)-mFc; experiment: FACS blocking assay: mAb preincubated with LAG-3(ECD)-mFc (1 µg/mL), blocked ligand MHC class II on Daudi cells, PE anti-mouse Fc
Protocol: FIGS. 4A-4D show inhibition of human LAG-3 binding to MHC class II molecules by select anti-LAG-3 mAbs. An in vitro binding assay was performed using recombinant LAG-3(ECD)-mFc and Daudi cells which express human MHC class II molecules. […] The binding of LAG-3(ECD)-mFc to Daudi cells in the presence of anti-LAG-3 mAbs or a control mAb was analyzed by FACS.
Human Daudi cells were cultured in RPMI+10% FBS. Human LAG-3(ECD)-mFc protein (human LAG-3 ECD fused to mouse Fc) at 1 μg/ml final concentration was incubated with purified mouse, humanized, or chimeric anti-LAG-3 mAbs at various concentrations for 15 minutes at 4° C. The mixture was then added to 100,000 human Daudi cells in a 96-well round bottom plate, mixed and incubated for 15 minutes on ice. Cells were then centrifuged at 1,000 rpm for 5 minutes and washed with FACS buffer (PBS supplemented with 5% BSA) three times. The cells were then incubated with PE-conjugated goat anti-mouse Fc polyclonal antibodies on ice for 15 minutes, washed with FACS buffer three times and then resuspended in FACS buffer containing 0.1 μg/ml PI (propidine iodine) for live/dead cell gating. Cells were then run through the FACS Caliber instrument and the data were analyzed by the Flowjo software. Results of the inhibition of LAG-3 binding to Daudi cells by chimeric mAbs B1C, B3C, B4C, BSC, B9C, and B11C are shown in FIG. 4B.

human LAG-3(ECD)-huFc = molecular target: T2, human LAG-3(ECD)-huFc; experiment: SPR (Biacore): mAb from hybridoma supernatant captured on anti-mouse IgG CM5 chip, human LAG-3(ECD)-huFc 50-400 nM injected
Protocol: Anti-mouse IgG antibodies were immobilized via amine coupling on CM5 chip surface. Anti-LAG-3 mAbs in hybridoma supernatants were captured on the chip surface and a series of concentrations (50-400 nM) of human LAG-3(ECD)-huFc protein were injected and passed through the captured surface. The on and off rates for antibody-antigen binding were measured, curve fitted and calculated.

B7/IgG4 = molecular target: T3, B7/IgG4; experiment: ELISA peptide competition: peptide preincubated with B7/IgG4, competitor hLAG3-mFc; peptide at 600-fold hLAG3-mFc; final incubation 60 min at room temperature; anti-mouse IgG-HRP
T3 construct: Chimeric: mouse VH and VL with human IgG4 heavy chain and kappa light chain constant regions; also called B7 (human IgG4 heavy chain and kappa light chain chimeric)
Protocol: (§1) B5/IgG4 was preincubated with a competition peptide for 30 minutes. Then human LAG-3 extracellular domain (ECD) fused to mouse Fc (hLAG3-mFc) was added (the final peptide concentration was 600-fold that of hLAG3-mFc) and the mixture was incubated for 60 minutes before being added to an ELISA plate coated with anti-human IgG. The incubation was carried out at 4° C. overnight. After washing, the hLAG3-mFc bound to the immobilized B5/IgG4 on the ELISA plate was detected by adding anti-mouse IgG conjugated to horseradish peroxidase (HRP) and incubating for 60 minutes. Then, after washing, the ELISA was developed using One-step Detection Solution and measured as the absorbance at 450 nm.
The assay condition is the same as in FIG. 5A except that the final incubation of the mAb, the competition peptide, and hLAG3-mFc on the ELISA plate was performed at room temperature for 60 minutes instead of incubation at 4° C. overnight.
(§2) Anti-human IgG in carbonate coating buffer was coated on an ELISA plate at 4° C. (50 μL/well at 1 μg/mL) overnight. In each well of a separate plate, a chimeric version of a given anti-LAG-3 mAb (50 μL/well at 1.4 nM) and a competition peptide (50 μL/well at various concentrations as indicated in the figures) were mixed and incubated for 30 minutes at room temperature. Then human LAG-3 extracellular domain (ECD) fused to mouse Fc (hLAG3-mFc) was added to each well (50 μL/well at 2 nM) and the final mixture was incubated at room temperature for 60 minutes before added to the ELISA plate (50 μL/well) for another 60-minute incubation.

[1] = molecular target: T4, B12 (human IgG1 heavy chain and kappa light chain chimeric); experiment: ELISA peptide competition: peptide preincubated with chimeric IgG1 B12, competitor hLAG3-mFc; peptide at 600-fold hLAG3-mFc; capture on anti-human IgG, anti-mouse IgG-HRP
T4 construct: Chimeric: mouse VH and VL with human IgG1 heavy chain and kappa light chain constant regions
T4 sequence (VH, as listed by the source): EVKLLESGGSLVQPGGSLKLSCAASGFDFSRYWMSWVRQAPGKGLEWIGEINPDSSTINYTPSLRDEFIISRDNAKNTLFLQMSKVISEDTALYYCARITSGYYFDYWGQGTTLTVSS
Protocol: as §1, with “FIGS. 5A-5D show the effect of competition peptides on LAG-3 binding to anti-LAG-3 mAbs. […] B5/IgG4 was” for “B5/IgG4 was”
as §2, with “incubation. The final incubation after adding the mixture to the ELISA plate was also performed at 4° C. overnight in some assays. The plate was washed and the binding of hLAG3-mFc to the immobilized anti-LAG-3 mAb was detected by adding anti-mouse IgG conjugated to horseradish peroxidase ([…]) (ThermoFisher Scientific, Cat#: A16084; Waltham, Mass.) and incubating for 60 minutes.” for “incubation.”

B5/IgG4 = molecular target: T5, B5/IgG4; experiment: ELISA peptide competition: peptide preincubated with B5/IgG4, competitor hLAG3-mFc; peptide at 600-fold hLAG3-mFc; capture on anti-human IgG, anti-mouse IgG-HRP
T5 construct: Chimeric: mouse VH and VL with human IgG4 heavy chain and kappa light chain constant regions; also called B5 (human IgG4 heavy chain and kappa light chain chimeric)
Protocol: as §1, with “FIGS. 5A-5D show the effect of competition peptides on LAG-3 binding to anti-LAG-3 mAbs. […] B5/IgG4 was” for “B5/IgG4 was”
as §2, with “incubation. The final incubation after adding the mixture to the ELISA plate was also performed at 4° C. overnight in some assays. The plate was washed and the binding of hLAG3-mFc to the immobilized anti-LAG-3 mAb was detected by adding anti-mouse IgG conjugated to horseradish peroxidase ([…]) (ThermoFisher Scientific, Cat#: A16084; Waltham, Mass.) and incubating for 60 minutes.” for “incubation.”

Binder	binding result (B7/IgG4)	binding result [1]	binding result (B5/IgG4)	other results
BG29 (human IgG4 heavy chain and kappa light chain chimeric) (antibody, V domains shown, Chimeric: mouse VH and VL with human IgG4 heavy chain and kappa light chain constant regions; also called chimeric BG29) VH: QIQLQQSGPEVVKPGASVRISCKASGYTFSDYHINWVKQKPGQGLEWIGWIYPGRGDPEYNEKFKGKATLTVDRSASTAYMQLSSLTSEDTSVYFCEIYYGNYIDYWGQGTTLTVSS VL: DIVMTQAAPSVPVTPGESVSISCRSSKSLLHSDGKTYLYWFLQRPGQSPQRLIYYMSNLASGVPDRFSGRGSGTDFTLRISRVEAEDVGVYYCMQSLEYPWTFGGGTKLEIK	–	–	–	IC50 (read off the curve) (human LAG-3(ECD)-mFc): ~1 nM
B1 (antibody, V domains shown, Mouse mAb from hybridoma; also called mouse anti-LAG-3 mAb B1) VH: DVQLQESGPGLVKPSQSLSLTCTVTGYSITSDYAWNWIRQFPGNKLEWMGYIDYSGITSYNPSLKSRISITRDTSKNQFFLQLNSVTTEDTATYYCAREDHYDLAWFAYWGQGTLVTVSA VL: DIQMTQTTSSLSASLGDRVTISCRASQDISNYLNWYQQKPDGTVKLLIYYTSRLHSGVPSRFSGSGSGTDYSLTISNLEPEDIATYYCHQYSNRPPTFGGGTKLEIK	–	–	–	Kd (human LAG-3(ECD)-huFc): 1.21 nM
B13 (antibody, V domains shown, Mouse mAb from hybridoma; also called mouse anti-LAG-3 mAb B13) VH: EVMLVESGGGLVKPGGSLKVSCAASGFTFSIYAMCWVRQTPEKRLEWVATISSGGSNTYYPDSVKGRFTISRDNAKNTLYLQMSSLRSEDTAVYYCARGDVYYDYDGRGFDYWGQGTTLTVSS VL: DIVMTQSPSSLTVTAGEKVTMSCKSSQSLLNSGNQKNYLTWYQQKPGQPPKMLIYWASTRESGVPERFTGSGSGTDFTLTINSVQAEDMAIYYCQNDYGYPLAFGAGTRLELK	–	–	–	Kd (human LAG-3(ECD)-huFc): 8.17 nM
PHPAAPSSWGPRPR (also called peptide 15-28) [15-28]	binds	–	–	–
DSGPPAAAPGHPLAP (also called peptide D15) [D15]	–	binds	binds	–
SGPPAAAPGHPLAP (also called peptide S14) [S14]	–	binds	binds	–
PHPAAPSSWGPRPRR (also called peptide 15-29) [15-29]	binds	–	–	–
APSSWGPRPRRY (also called peptide 19-30) [19-30]	binds	–	–	–
PAAPSSWGPRPRRY (also called peptide 17-30) [17-30]	binds	–	–	–
B3 (antibody, V domains shown, Mouse mAb from hybridoma; also called mouse anti-LAG-3 mAb B3) VH: QVQLQQPGAELLKPGASVKMSCKASGYTFTSYDIHWLKQTPGQGLEWIGAIYPENGDSSYSQKFKDKATLTADKSSNTAYIHLSSLTSEDSAVYYCARGGYYDYVWFPYWGQGTLVTVSA VL: DVVMTQTPLSLPVSLGDQASISCRSSQSILYSNGYTYLEWYLQKPGQSPKLLIYGVSNRFSGVPDRFSGSGSGTDFTLKISRVESEDMGVYYCFQGTHVPLTFGAGTKLELK	–	–	–	Kd (human LAG-3(ECD)-huFc): 1.53 nM
B4 (antibody, V domains shown, Mouse mAb from hybridoma; also called mouse anti-LAG-3 mAb B4) VH: QVQLQQPGAELLKPGASVKMSCKASGYTFTSYDIHWLKQTPGQGLEWIGAIYPENGDSSYSQKFKGKATLTADKSSNTAYIHLSSLTSEDSAVYYCARGGYFDYVWFPYWGQGTLVTVSA VL: DVVMTQTPLSLPVSLGDQASISCRSSQSIVYSNGYTYLEWYLQKPGQSPKLLIYGVSNRFSGVPDRFSGSGSGTDFTLKISRVEAEDMGVYYCFQGTHVPLTFGAGTKLELK	–	–	–	Kd (human LAG-3(ECD)-huFc): 0.217 nM
QPDSGPPAAAPGHPLAP (also called peptide Q17) [Q17]	–	binds	binds	–

Continued, in another order:

binding result (B7/IgG4)	binding result [1]	binding result (B5/IgG4)	Binder	other results
–	binds	binds	QPDSGPPAAAPGHPLA (also called peptide Q16) [Q16]	–
–	binds	–	GPPAAAPGHPLAPGPHPAA (also called peptide 1-19) [1-19]	–
binds	–	–	PHPAAPSSWGPRP (also called peptide 15-27) [15-27]	–
binds	–	–	AAPSSWGPRPRRY (also called peptide 18-30) [18-30]	–
–	binds	binds	PDSGPPAAAPGHPLAP (also called peptide P16) [P16]	–
–	–	binds	PPAAAPGHPLA (also called peptide 2-12) [2-12]	–
